From patent US20160185837A1 (AstraZeneca / MedImmune, published 2016)
Where a chain is given by its changes, count along the chain named.

B1: IP278 (Fc fusion)
chain: YSEGTFTSDYSKLLEEEAVRLFIEWLVKGPPSSGAPPPSGGGGGSGGGGSGGGGSGGGGSATHTCPPC
B2: IP295 (Fc fusion)
chain: B1 chain with V27L, K28A, P30G
B3: IP280 (Fc fusion)
chain: B1 chain with P30G
B4: IP279 (Fc fusion)
chain: YSEGTFTSDYSKLLEEEAVRLFIEWLVKGPSSGAPPPSGGGGGSGGGGSGGGGSGGGGSATHTCPPC
B5: IP291 (Fc fusion)
chain: YSEGTFTSDYSKLLEEECVRLFIEWLVKGGPGGGAPPPGCGGGGGGGGGGGGGGGGGACPPC
B6: IP292 (Fc fusion)
chain: B5 chain with C18A, L21C, P38C, C40G
B7: IP296 (Fc fusion)
chain: YSEGTFTSDYSKLLEEEAVRCFIEWLVKGGPSSGAPPCSGGGGGGGGGGGGGGGGGGGGGGGGACPPC
B8: IP274 (Fc fusion)
chain: YSEGTFTSDYSKLLEKEAVRLFIEWLLKGPGGGGGSGGGGSGGGGSGGGGSATHTCPPC
B9: IP276 (Fc fusion)
chain: YSEGTFTSDYSKLLEEEAVRLFIEWLVKGPGGGGGGGGGGGGGGGGGATHTCPPC
B10: IP293 (Fc fusion)
chain: B9 chain with L21C, W25C, A48G, T49G, H50G, T51A
B11: IP294 (Fc fusion)
chain: B9 chain with E24C, K28C, A48G, T49G, H50G, T51A
B12: IP272 (Fc fusion)
chain: YSEGTFTSDYSKLLEEEAVRLFIEWLLAQKAPPGGSGSTASSGSGSATGGGGAATHTCPPC
B13: IP273 (Fc fusion)
chain: B12 chain with L27V, A28K, Q29G, K30P, P32A, P33A

What follows are binders tested against T1, human GIP receptor (human, UniProt P48546 22-466) (assay: cell-based or functional assay).
T1 sequence (looked up): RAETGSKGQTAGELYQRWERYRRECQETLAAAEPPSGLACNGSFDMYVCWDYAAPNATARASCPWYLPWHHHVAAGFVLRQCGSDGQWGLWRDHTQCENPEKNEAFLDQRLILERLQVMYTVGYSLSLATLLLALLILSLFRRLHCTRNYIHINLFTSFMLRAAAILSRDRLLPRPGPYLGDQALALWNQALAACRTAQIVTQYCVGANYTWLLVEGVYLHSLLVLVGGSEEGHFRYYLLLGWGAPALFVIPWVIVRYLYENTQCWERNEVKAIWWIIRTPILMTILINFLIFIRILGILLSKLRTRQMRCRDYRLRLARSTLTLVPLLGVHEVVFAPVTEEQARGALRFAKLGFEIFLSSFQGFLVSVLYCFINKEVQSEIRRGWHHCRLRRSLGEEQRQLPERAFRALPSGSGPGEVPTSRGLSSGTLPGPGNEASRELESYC

Binder	cAMP EC50 [nM]	cAMP EC50, Batch 2 [nM]	cAMP EC50, Batch 3 [nM]	cAMP EC50, Batch 4 [nM]
B1	0.011			
B2	0.0043	0.012	0.0086	
B3	0.0056	0.0045	0.0064	
B4	0.01			
B5	0.12			
B6	0.043	0.046		
B7	0.018	0.021	0.014	0.011
B8	0.017	0.014		
B9	0.013			
B10	1.2			
B11	1.3			
B12	0.011			
B13	0.0084			

What follows are binders tested against T2, mouse GLP-1 receptor (mouse, UniProt O35659 22-463) (assay: cell-based or functional assay).
T2 sequence (looked up): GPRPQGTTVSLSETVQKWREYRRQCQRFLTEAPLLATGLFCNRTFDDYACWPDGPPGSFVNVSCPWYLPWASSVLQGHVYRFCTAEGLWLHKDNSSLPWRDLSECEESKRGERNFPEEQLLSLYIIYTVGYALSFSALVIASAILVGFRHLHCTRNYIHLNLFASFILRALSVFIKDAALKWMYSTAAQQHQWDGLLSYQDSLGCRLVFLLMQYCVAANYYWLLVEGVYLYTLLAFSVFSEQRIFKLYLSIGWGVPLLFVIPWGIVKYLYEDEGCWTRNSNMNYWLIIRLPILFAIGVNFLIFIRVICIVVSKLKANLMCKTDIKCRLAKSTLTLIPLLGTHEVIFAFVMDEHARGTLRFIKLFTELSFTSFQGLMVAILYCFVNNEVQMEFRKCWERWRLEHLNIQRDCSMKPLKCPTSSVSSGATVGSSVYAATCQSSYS

Binder	cAMP EC50 [nM]	cAMP EC50, Batch 2 [nM]	cAMP EC50, Batch 3 [nM]	cAMP EC50, Batch 4 [nM]
B1	0.32			
B2	0.35	0.241	0.34	
B3	0.21			
B4	0.22			
B5	120			
B6	1.2	1.32		
B7	1.4	0.6		0.64
B8	1.2			
B9	0.34			
B10	13			
B11	350			
B12	2.3			
B13	0.19			

The binders below were run against human glucagon receptor (human, UniProt P47871 26-477) (assay: cell-based or functional assay).

Binder	cAMP EC50 [nM]	cAMP EC50, Batch 2 [nM]	cAMP EC50, Batch 3 [nM]	cAMP EC50, Batch 4 [nM]
B1	78			
B2	41	32	23	
B3	520	270	280	
B4	170			
B5	> 10600			
B6	> 13600	> 14900		
B7	> 1120	> 784	> 4490	6700
B8	38	30		
B9	1500			
B10	> 13000			
B11	> 6810			
B12	1700			
B13	670			

These binders were tested against T3, mouse GIP receptor (mouse, UniProt Q0P543 19-460) (assay: cell-based or functional assay).
T3 sequence (looked up): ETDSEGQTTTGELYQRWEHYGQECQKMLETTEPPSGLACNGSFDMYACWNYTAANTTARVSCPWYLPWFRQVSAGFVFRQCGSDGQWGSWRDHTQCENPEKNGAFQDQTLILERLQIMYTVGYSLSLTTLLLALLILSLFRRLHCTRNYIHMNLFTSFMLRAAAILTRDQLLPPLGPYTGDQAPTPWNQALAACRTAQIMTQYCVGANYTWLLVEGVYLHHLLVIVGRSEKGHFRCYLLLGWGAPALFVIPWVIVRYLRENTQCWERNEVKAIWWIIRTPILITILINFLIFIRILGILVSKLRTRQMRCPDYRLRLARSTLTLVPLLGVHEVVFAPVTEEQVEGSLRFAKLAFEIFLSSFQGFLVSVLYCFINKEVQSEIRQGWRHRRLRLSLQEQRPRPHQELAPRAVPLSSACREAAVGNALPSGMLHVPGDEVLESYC

Binder	cAMP EC50 [nM]	cAMP EC50, Batch 2 [nM]	cAMP EC50, Batch 3 [nM]	cAMP EC50, Batch 4 [nM]
B1	85			
B2	0.66	1.2	0.571	
B3	8.8			
B4	43			
B5	680			
B6	66	55.4		
B7	110	55		65
B8	1			
B9	510			
B10	7800			
B11	> 6800			
B12	11			
B13	85			

These binders were tested against human GLP-1 receptor (human, UniProt P43220 24-463) (assay: cell-based or functional assay).

Binder	cAMP EC50 [nM]	cAMP EC50, Batch 2 [nM]	cAMP EC50, Batch 3 [nM]	cAMP EC50, Batch 4 [nM]
B1	0.13			
B2	0.091	0.14	0.15	
B3	0.077	0.058	0.08	
B4	0.1			
B5	12			
B6	0.26	1.1		
B7	0.57	0.39	0.37	0.29
B8	0.36	0.2		
B9	0.16			
B10	1.6			
B11	27			
B12	0.53			
B13	0.1			

What follows are binders tested against T4, rat GIP receptor (rat, UniProt P43219 19-455) (assay: cell-based or functional assay).
T4 sequence (looked up): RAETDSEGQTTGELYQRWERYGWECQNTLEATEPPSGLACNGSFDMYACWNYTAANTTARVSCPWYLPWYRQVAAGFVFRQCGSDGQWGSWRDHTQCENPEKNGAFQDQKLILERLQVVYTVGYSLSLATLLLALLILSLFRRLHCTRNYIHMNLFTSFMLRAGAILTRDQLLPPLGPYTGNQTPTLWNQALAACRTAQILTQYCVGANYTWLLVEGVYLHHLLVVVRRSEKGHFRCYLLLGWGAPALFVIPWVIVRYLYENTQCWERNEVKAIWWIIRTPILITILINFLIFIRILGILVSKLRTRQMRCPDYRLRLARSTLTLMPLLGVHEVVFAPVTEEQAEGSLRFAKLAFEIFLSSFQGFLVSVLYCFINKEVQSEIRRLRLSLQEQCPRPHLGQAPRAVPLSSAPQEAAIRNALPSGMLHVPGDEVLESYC

Binder	cAMP EC50 [nM]	cAMP EC50, Batch 2 [nM]	cAMP EC50, Batch 3 [nM]	cAMP EC50, Batch 4 [nM]
B1	0.13			
B2	0.041	0.0658	0.025	
B3	0.046			
B4	0.097			
B5	1.4			
B6	0.29	0.186		
B7	0.46			0.14
B8	0.028			
B9	0.26			
B10	16			
B11	100			
B12	0.048			
B13	0.09			

Each binder was assayed against T5, rat GLP-1 receptor (rat, UniProt P32301 22-463) (assay: cell-based or functional assay).
T5 sequence (looked up): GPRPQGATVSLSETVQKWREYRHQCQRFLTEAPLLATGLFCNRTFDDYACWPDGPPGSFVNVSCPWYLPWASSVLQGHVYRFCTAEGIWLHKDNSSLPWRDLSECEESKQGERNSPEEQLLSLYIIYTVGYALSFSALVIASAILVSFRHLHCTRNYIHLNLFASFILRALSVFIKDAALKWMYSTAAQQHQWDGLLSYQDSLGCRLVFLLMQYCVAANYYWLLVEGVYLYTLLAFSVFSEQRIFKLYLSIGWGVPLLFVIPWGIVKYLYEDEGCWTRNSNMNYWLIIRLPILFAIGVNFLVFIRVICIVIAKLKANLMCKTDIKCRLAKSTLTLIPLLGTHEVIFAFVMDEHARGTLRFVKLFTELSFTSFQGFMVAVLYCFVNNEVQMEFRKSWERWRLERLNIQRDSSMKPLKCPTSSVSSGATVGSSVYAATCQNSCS

Binder	cAMP EC50 [nM]	cAMP EC50, Batch 2 [nM]	cAMP EC50, Batch 3 [nM]	cAMP EC50, Batch 4 [nM]
B1	0.026			
B2	0.023	0.018	0.0286	
B3	0.027			
B4	0.024			
B5	3			
B6	0.037	0.0432		
B7	0.055	0.028		0.027
B8	0.057			
B9	0.028			
B10	0.45			
B11	7.1			
B12	0.085			
B13	0.02			
